# Measured values published in US20210332112A1 (University of Texas, published 2021).
# B1: hu1B7 antibody (antibody, V domains shown)
# VH: EVQLVESGGGLVQPGGSLRLSCAASGYKFTSYWMHWVRQAPGKGLEWVGNIFPGSGSTNYDEKFNSRFTISVDTSKNTAYLQMNSLRAEDTAVYYCTRWLSGAYFDYWGQGTLVTVSS
# VL: DIQMTQSPSSLSASVGDRVTITCSASSSVSFMYWYQQKPGKAPKLLIYLTSNLPSGVPSRFSGFGSGTDYTLTISSLQPEDFATYYCQQWSSHPPTFGQGTKVEIK
# Target: pertussis toxin (Bordetella pertussis, UniProt P04977 35-269; P04978 28-226; P04979 29-227; P0A3R5 43-152; P04981 35-133)
# Experiment: ELISA, plate coated with pertussis toxin, antibody titrated, detection with goat anti-human kappa constant domain-HRP [panel C]
binder,measurement,value
B1,EC50 (read off the curve),~0.05 µg/mL
